Paper PMC9943068

How the values were obtained:
[1] = target: DNMT1 (Homo sapiens) (UniProt P26358); settings: cited from earlier work
[2] = target: hUSP7 residues 561-1102 (human) (UniProt Q93009); test: ITC; 20 µM USP7(561-1102) in the cell titrated with 1.2 mM PAF15 at 293 K; 10 mM HEPES pH 7.5, 150 mM NaCl, 0.25 mM TCEP; one-site model

Sequence of UniProt P26358 (P26358 whole entry, the tested form may be a part): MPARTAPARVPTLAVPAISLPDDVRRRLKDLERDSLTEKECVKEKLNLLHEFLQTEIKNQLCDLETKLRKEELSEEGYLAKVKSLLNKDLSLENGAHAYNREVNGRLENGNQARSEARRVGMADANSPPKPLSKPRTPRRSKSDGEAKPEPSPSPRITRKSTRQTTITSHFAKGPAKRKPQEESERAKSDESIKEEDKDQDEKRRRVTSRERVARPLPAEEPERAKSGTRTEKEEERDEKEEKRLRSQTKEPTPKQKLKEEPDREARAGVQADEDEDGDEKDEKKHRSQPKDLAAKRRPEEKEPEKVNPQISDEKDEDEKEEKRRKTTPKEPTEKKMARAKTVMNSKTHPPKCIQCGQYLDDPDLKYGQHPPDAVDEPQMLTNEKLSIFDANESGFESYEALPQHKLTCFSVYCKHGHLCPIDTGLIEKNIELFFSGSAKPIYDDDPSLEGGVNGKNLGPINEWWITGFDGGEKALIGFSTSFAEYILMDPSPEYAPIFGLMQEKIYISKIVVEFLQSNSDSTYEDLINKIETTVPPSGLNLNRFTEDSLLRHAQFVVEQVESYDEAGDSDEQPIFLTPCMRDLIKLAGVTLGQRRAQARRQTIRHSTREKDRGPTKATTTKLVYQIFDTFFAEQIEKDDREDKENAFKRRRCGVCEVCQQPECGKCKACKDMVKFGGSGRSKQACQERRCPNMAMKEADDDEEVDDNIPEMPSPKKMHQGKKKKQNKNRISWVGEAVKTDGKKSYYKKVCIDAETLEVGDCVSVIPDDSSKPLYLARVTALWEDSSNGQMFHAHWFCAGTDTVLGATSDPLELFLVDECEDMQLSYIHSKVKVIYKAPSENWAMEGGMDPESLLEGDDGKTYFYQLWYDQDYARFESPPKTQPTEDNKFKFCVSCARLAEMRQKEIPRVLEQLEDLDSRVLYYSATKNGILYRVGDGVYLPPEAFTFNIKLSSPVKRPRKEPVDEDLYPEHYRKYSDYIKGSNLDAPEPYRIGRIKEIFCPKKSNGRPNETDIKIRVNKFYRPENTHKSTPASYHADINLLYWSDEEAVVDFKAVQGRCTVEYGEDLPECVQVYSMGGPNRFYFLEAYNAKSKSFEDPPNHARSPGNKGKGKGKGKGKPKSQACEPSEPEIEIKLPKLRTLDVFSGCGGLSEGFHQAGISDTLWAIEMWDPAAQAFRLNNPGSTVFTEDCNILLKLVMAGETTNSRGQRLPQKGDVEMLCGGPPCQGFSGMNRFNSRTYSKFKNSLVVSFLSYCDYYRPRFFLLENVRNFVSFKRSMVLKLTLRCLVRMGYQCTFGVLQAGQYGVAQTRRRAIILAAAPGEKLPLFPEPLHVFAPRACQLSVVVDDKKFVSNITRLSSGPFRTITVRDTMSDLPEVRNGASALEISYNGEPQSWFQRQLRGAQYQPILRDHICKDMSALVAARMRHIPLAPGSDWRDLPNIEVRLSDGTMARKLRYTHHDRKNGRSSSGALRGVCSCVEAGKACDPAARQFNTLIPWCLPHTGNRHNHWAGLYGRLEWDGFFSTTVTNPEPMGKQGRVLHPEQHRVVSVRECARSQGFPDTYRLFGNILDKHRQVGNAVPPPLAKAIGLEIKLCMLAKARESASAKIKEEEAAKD

Kd [2] | Substance | Kd [1]
 | USP7 561-1102 (from UniProt Q93009) | 0.6 µM
32.7 µM | full-length hPAF15 wild-type, C-terminal FLAG tag (from UniProt Q15004 1-111) (natural protein) | 
